Results as given in the supplement of paper PMC9116672.
± gives the standard deviation of the averaged measurements or the uncertainty stated by the source.

What was measured:
[1] = duplex formation entropy ΔS (Van't Hoff fit of HRM Tm); higher = smaller entropy loss on duplex formation; settings: temperature for dG: 50 °C, NaCl: 500 mM (unadjusted)
Description: (§1)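 Duplex of the listed DNA strand with its complement, in 1x NNE buffer (500 mM NaCl, pH 7.0) with 1x EvaGreen. ΔH and ΔS come from a Van't Hoff linear fit of 1/Tm against ln(CT/4) over 1-20 uM, using HRM Tm values.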

[2] = duplex formation free energy ΔG50 (Van't Hoff fit of HRM Tm); higher = less stable duplex; settings: temperature for dG: 50 °C, NaCl: 500 mM (unadjusted)
Description: as §1

[3] = duplex formation enthalpy ΔH (Van't Hoff fit of HRM Tm); higher = less exothermic duplex formation; settings: temperature for dG: 50 °C, NaCl: 500 mM (unadjusted)
Description: as §1

[4] = duplex melting temperature (HRM, EvaGreen); higher = more stable duplex
Description: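 Listed DNA strand annealed 1:1 with its complementary strand (95 °C 5 min, 0.1 °C/s to 20 °C). Melted in 1x NNE buffer (500 mM NaCl, 10 mM Na2HPO4, 1 mM EDTA, pH 7.0) with 1x EvaGreen on a LightCycler96 (37 to 97 °C, 0.1 °C/s). Tm is the peak of -dF/dT at the stated total duplex concentration; 4 replicates are averaged. PS oligos are non-stereospecific (Rp/Sp mixtures).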

[5] = backbone: PO-PO (both strands phosphodiester DNA)
[6] = backbone: PS-PO (listed strand fully phosphorothioate, complement phosphodiester)
[7] = backbone: PS-PS (both strands fully phosphorothioate)
[8] = duplex concentration 1 µM, backbone: PS-PO (listed strand fully phosphorothioate, complement phosphodiester)
[9] = duplex concentration 1 µM, backbone: PS-PS (both strands fully phosphorothioate)
[10] = duplex concentration 2.5 µM, backbone: PO-PO (both strands phosphodiester DNA)
[11] = duplex concentration 2.5 µM, backbone: PS-PO (listed strand fully phosphorothioate, complement phosphodiester)
[12] = duplex concentration 2.5 µM, backbone: PS-PS (both strands fully phosphorothioate)
[13] = duplex concentration 5 µM, backbone: PO-PO (both strands phosphodiester DNA)
[14] = duplex concentration 5 µM, backbone: PS-PO (listed strand fully phosphorothioate, complement phosphodiester)
[15] = duplex concentration 5 µM, backbone: PS-PS (both strands fully phosphorothioate)
[16] = duplex concentration 7.5 µM, backbone: PO-PO (both strands phosphodiester DNA)
[17] = duplex concentration 7.5 µM, backbone: PS-PO (listed strand fully phosphorothioate, complement phosphodiester)
[18] = duplex concentration 7.5 µM, backbone: PS-PS (both strands fully phosphorothioate)
[19] = duplex concentration 10 µM, backbone: PO-PO (both strands phosphodiester DNA)
[20] = duplex concentration 10 µM, backbone: PS-PO (listed strand fully phosphorothioate, complement phosphodiester)
[21] = duplex concentration 10 µM, backbone: PS-PS (both strands fully phosphorothioate)
[22] = duplex concentration 15 µM, backbone: PO-PO (both strands phosphodiester DNA)
[23] = duplex concentration 15 µM, backbone: PS-PO (listed strand fully phosphorothioate, complement phosphodiester)
[24] = duplex concentration 15 µM, backbone: PS-PS (both strands fully phosphorothioate)
[25] = duplex concentration 20 µM, backbone: PO-PO (both strands phosphodiester DNA)
[26] = duplex concentration 20 µM, backbone: PS-PO (listed strand fully phosphorothioate, complement phosphodiester)
[27] = duplex concentration 20 µM, backbone: PS-PS (both strands fully phosphorothioate)
[28] = duplex concentration 1 µM, backbone: PO-PO (both strands phosphodiester DNA)

Row | Sequence | duplex formation entropy ΔS [1, 5] [cal/mol/K] | duplex formation entropy ΔS [1, 6] [cal/mol/K] | duplex formation entropy ΔS [1, 7] [cal/mol/K] | duplex formation free energy ΔG50 [2, 5] [kcal/mol] | duplex formation free energy ΔG50 [2, 6] [kcal/mol] | duplex formation free energy ΔG50 [2, 7] [kcal/mol] | duplex formation enthalpy ΔH [3, 5] [kcal/mol] | duplex formation enthalpy ΔH [3, 6] [kcal/mol] | duplex formation enthalpy ΔH [3, 7] [kcal/mol] | duplex melting temperature [4, 8] [°C] | duplex melting temperature [4, 9] [°C] | duplex melting temperature [4, 10] [°C] | duplex melting temperature [4, 11] [°C] | duplex melting temperature [4, 12] [°C] | duplex melting temperature [4, 13] [°C] | duplex melting temperature [4, 14] [°C] | duplex melting temperature [4, 15] [°C] | duplex melting temperature [4, 16] [°C] | duplex melting temperature [4, 17] [°C] | duplex melting temperature [4, 18] [°C] | duplex melting temperature [4, 19] [°C] | duplex melting temperature [4, 20] [°C] | duplex melting temperature [4, 21] [°C] | duplex melting temperature [4, 22] [°C] | duplex melting temperature [4, 23] [°C] | duplex melting temperature [4, 24] [°C] | duplex melting temperature [4, 25] [°C] | duplex melting temperature [4, 26] [°C] | duplex melting temperature [4, 27] [°C] | duplex melting temperature [4, 28] [°C]
1 | AGCTGAGCCTGCCGCC | -252 ± 13 | -174 ± 4.5 | -195 ± 4.6 | -16.8 ± 0.39 | -13.04 ± 0.1 | -12.29 ± 0.078 | -98.2 ± 4.6 | -69.1 ± 1.6 | -75.3 ± 1.6 | 65.9 ± 0.78 | 61.14 ± 0.19 | 77.27 ± 0.16 | 69.3 ± 0.33 | 64.02 ± 0.13 | 78.56 ± 0.24 | 71.58 ± 0.18 | 66.05 ± 0.17 | 79.697 ± 0.042 | 72.92 ± 0.22 | 67.37 ± 0.12 | 80.57 ± 0.19 | 73.99 ± 0.21 | 68.22 ± 0.11 | 81.65 ± 0.17 | 75.27 ± 0.28 | 69.27 ± 0.11 | 82.38 ± 0.13 | 76.21 ± 0.3 | 70.31 ± 0.28 | –
2 | CCGCTCAGAGTAGAGA | -187 ± 3.2 | -193 ± 3.2 | -183 ± 8 | -12.5 ± 0.059 | -11.31 ± 0.042 | -9.673 ± 0.048 | -72.8 ± 1.1 | -73.5 ± 1.1 | -68.9 ± 2.6 | 56.777 ± 0.05 | 49.2 ± 0.5 | 65.47 ± 0.19 | 59.67 ± 0.14 | 52.58 ± 0.28 | 67.54 ± 0.15 | 61.84 ± 0.13 | 54.81 ± 0.14 | 68.92 ± 0.084 | 63.04 ± 0.11 | 55.91 ± 0.17 | 69.87 ± 0.13 | 63.88 ± 0.14 | 56.68 ± 0.077 | 71.25 ± 0.081 | 65.05 ± 0.1 | 57.72 ± 0.067 | 72.15 ± 0.098 | 65.94 ± 0.14 | 58.67 ± 0.3 | 62.75 ± 0.41
3 | GTGGTACAAATGCGACC | -229 ± 5.5 | -214 ± 2.6 | -209 ± 8.9 | -13.92 ± 0.12 | -11.87 ± 0.036 | -9.816 ± 0.052 | -88 ± 1.9 | -80.9 ± 0.88 | -77.3 ± 2.9 | 58.59 ± 0.28 | 49.91 ± 0.4 | 68.46 ± 0.35 | 61.19 ± 0.13 | 52.86 ± 0.053 | 70.27 ± 0.1 | 63.12 ± 0.081 | 54.891 ± 0.046 | 71.34 ± 0.084 | 64.14 ± 0.075 | 55.93 ± 0.084 | 72.06 ± 0.12 | 65.04 ± 0.1 | 56.63 ± 0.12 | 73.205 ± 0.062 | 66.133 ± 0.0075 | 57.534 ± 0.054 | 74.14 ± 0.12 | 66.91 ± 0.08 | 58.25 ± 0.083 | 66.7
4 | GAGGCAGCCGCGACCTG | – | -199 ± 10 | -198 ± 4 | – | -14.3 ± 0.27 | -12.88 ± 0.078 | – | -78.6 ± 3.5 | -76.7 ± 1.4 | – | 63.68 ± 0.2 | 79.56 ± 0.14 | 72.02 ± 0.12 | 66.28 ± 0.29 | 81.39 ± 0.49 | 74.37 ± 0.34 | 68.52 ± 0.17 | 82.28 ± 0.58 | 75.9 ± 0.24 | 69.83 ± 0.094 | 82.97 ± 0.38 | 76.878 ± 0.05 | 70.65 ± 0.094 | 83.76 ± 0.16 | 77.946 ± 0.052 | 71.79 ± 0.097 | 84.53 ± 0.52 | 78.61 ± 0.15 | 72.633 ± 0.05 | –
